We go through 58 substances from the supplement of paper PMC12042874.

± gives the uncertainty stated by the source.

A short description of the data set: amyloid nucleation score (Sup35N fusion, yeast selection) (log enrichment); library NNK1; higher = more nucleation; inactive = no reads after selection. The gist of the method: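 Using DiMSum, nucleation scores were taken as the log enrichment of output over input reads, centred on the mode score of non-aggregating sequences. The input and output reads came from Illumina sequencing of plasmid inserts, with sequences under 100 input reads excluded. The yeast were psi-negative, expressed Sup35N fused to peptides of 20 random codons, were induced with 100 μM copper sulfate for 24 hours, and were grown 7 days at 30°C on medium lacking adenine and uracil.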

HSNYFPKSLYVLGLFCSTVS yielded an amyloid nucleation score of 6.22 ± 0.065. The figure for NLTWAGTLY is -0.875 ± 1.5; for LKVRLNESIICYAMRVKHIC it is 0.345 ± 0.36; for RMIKNYSIS it is 0.89 ± 0.55. The same measure for WSLWLRRDFSR: 0.76 ± 0.61; for WFMVVSRNMFCV: 0.456 ± 1.1.

For the substance WSKLYIAK, the amyloid nucleation score was -0.69 ± 0.41.

The substance NFKQGNSYVCNSCLGCGVSR had an amyloid nucleation score of 6.45 ± 0.084. Substance YVRRSCSSRESYSCNCLYVY came in with an amyloid nucleation score of 0.532 ± 0.92. In the case of IYRLDTI, the amyloid nucleation score was -0.864 ± 0.75. LHIAMTVYC displayed an amyloid nucleation score of 2.42 ± 0.13. The same measure for TEITC: 0.837 ± 0.27. As for NRLKFSLV, the amyloid nucleation score was -2.62 ± 2.7.

Take NWHPISVGSFYIVGLMRHRR: the amyloid nucleation score was 4.03 ± 0.11. The figure for HKSILVDVILSHFSSCSRCH is 5.3 ± 0.074; for IIIEVSQTDTV it is -0.292 ± 0.79; for TRVKQMEVVSWTRHHWPRCF it is -0.623 ± 0.47. With HYAVGRARNLGCLDLSQ, the amyloid nucleation score amounted to 0.064 ± 0.48.

As for KVAVN, the amyloid nucleation score is 0.453 ± 0.42. The figure for QSPISDCSGQSSCRMCQRYG is 0.408 ± 0.2. The same measure for FVVRCDYVVLTLDSGDRSYV: 3.37 ± 0.071; for NRFYYKARCRQVGHCT: 0.743 ± 0.46.

As to HNYVWCSPC, the amyloid nucleation score stood at 7.694 ± 0.07. As for AIYVNGCVCCISYLVPILMS, the amyloid nucleation score was found to be 3.61 ± 0.075. The figure for RMSSIKYVMWGHFAIVSTKV is 1.99 ± 0.43. Regarding RFNNDMTSLLSGRIAMEYSY, the amyloid nucleation score was -0.344 ± 0.62. GLRKYVKPVYSMCVFFLKWA gave an amyloid nucleation score of 1.02 ± 0.58.

As to WVWDCFHDCVPYMGRTGLVA, the amyloid nucleation score is -0.56 ± 0.93. With VILWRSRIASRCPTLM, the amyloid nucleation score was -0.415 ± 1.4. Substance RSYSTCFPLIVLSK had an amyloid nucleation score of 0.303 ± 0.28. The figure for PLFLVVTQMS is 5.25 ± 0.073; for ISCKWYNHISSRLNFMWHAK it is 0.394 ± 0.88. In the case of GCLNDCGSLVWYGVCKSCLP, the amyloid nucleation score is 0.446 ± 0.6. The same measure for FLTSECSTSSLHS: 0.56 ± 0.85. On to MLLACPHLTGYGVILIASIA, for which the amyloid nucleation score was -0.292 ± 0.36.

RMERGKNLQMWEGQEVGAEN: the amyloid nucleation score was -1.19 ± 0.77. The same measure for MSEFADTIMIVNGCGWRVVR: -0.039 ± 0.26; for GFGMFATTGKVLSMRAFQ: 0.025 ± 0.59. CGKTMGINAGMCSTNWGGPT yielded an amyloid nucleation score of 0.263 ± 0.33. The figure for VGWASQKINYWLETSGF is 0.329 ± 0.68; for LLAGYCQSYIQLELSNSEHV it is -0.241 ± 0.84; for GSRHFRDSVLSDVNVWYLKN it is -0.026 ± 0.35. The same measure for FKLWQVFRKSSMFQRGWGIG: 0.462 ± 0.78; for LPGDFYGSYRN: “inactive”; for VSSNYMRNML: 0.169 ± 0.34.

With PELYSVDHFNGYAPNYCRCR, the amyloid nucleation score is -0.534 ± 0.43. With VGLLSISLMYQRTASTGYFS, the amyloid nucleation score amounted to 0.615 ± 0.28. Consider RMFEVARSSKRSLFHSILET, for which the amyloid nucleation score came to 0.109 ± 0.26. For the substance ARGHGFQPVGPLGSVILMAR, the amyloid nucleation score is -0.302 ± 0.68. Consider WMLHMASGGTLCEEASVLVV, for which the amyloid nucleation score was -0.148 ± 0.55. The figure for ERPTNSYGSREILNSYIINF is 5.05 ± 0.084; for YSDLSVHHYFWHQFRQKCDR it is 2.01 ± 0.21; for SILVRVSVR it is 0.444 ± 1.2. The entry for KHSPSDYPERLHHNFYIERI is “inactive”; for SVKRMWYLDV it is -0.483 ± 0.32. The same measure for FSKAMNFRDRTSSQSQ: -0.581 ± 1.2; for WEDSGVIFLMVCCSVYLGNL: 2.66 ± 0.12.

With FHTLDVCPGRVLNLYNVKVW, the amyloid nucleation score is -0.427 ± 1.
